Measurements taken from EP3502685A1.

B1: Anti-[TRISP][C9] (antibody, V domains shown)
VH: AVTLDESGGGLQTPGGALSLVCKASGFSISSYSMQWVRQAPGKGLEWVAGIYYDGNTWYAPAVKGRATISRDNGQSTVRLRLNNLRAEDTATYFCAKYAGGYSIDAWGHGTEVIVSS
VL: ALTQPSSVSANPGETVKITCSGSSGSYGWYQQKSPGSGPVTVIYYNDKRPSDIPSRFSGSASGSTATLTITGVQAEDEAVYFCGGYDSSTYVGIFGAGTTLTVL
B2: Anti-[TRISP][B7] (antibody, V domains shown)
VH: AVTLDESGGGLQTPRGGLSLVCKASGYTFSSHNMAWVRQAPGKGLEFVAGISNTGSFTLYGAAVKGRATISRDNGQSTVRLQLNNLRAEDTGTYYCAKHAGVGLYSIDAWGHGTEVIVSS
VL: ALTQPSSVSANLGGTVKITCSGGTSDYGWYQQKAPGSAPVTLIYDNTNRPSDIPSRFSGSLSGSTNTLTITGVQAEDEAVYFCGSADRTYAGVFGAGTTLTVL

Target: T. spiralis E/S antigen

Row | Binder | detection limit
1 | B1 | 6 ng/mL
2 | B2 | 6 ng/mL
